# Square brackets hold non-standard residues; d marks the D form. Ends that are not written are not given here. dCit = NC(=O)NCCC[C@@H](N)C(=O)O
# Target: Ac-VQIINK-NH2 (SEQ ID NO: 23) (N-terminal acetyl (Ac); C-terminal amide (NH2))
# Assay: cell-based or functional assay
row,Binder,VQIINK Inhibition IC50 [µm]
1,[dW][dR][dL][dK][dV][dD][dW] [wrlkvdw],3.21
2,[dL][dE][dL][dK][dI][dK][dF][dW] [lelkikfw],2.78
3,[dW][dR][dL][dR][dI][dT][dW] [wrlritw],2.89
4,[dW][dL][dK][dI][dV][dW] [wlkivw],3.93
5,[dW][dK][dV][dW][dV][dR]G[dW] (not fully specified (residue 7); printed as wkvwvrgw) [wkvwvrgw],2.17
6,[dL][dR][dI][dK][dI][dR][dF][dH] [lrikirfh],2.69
7,[dL][dK][dI][dH][dI][dR][dH][dW] [lkihirhw],2.38
8,[dL][dK][dL][dH][dL][dH][dF][dH] [lklhlhfh],2.87
9,[dW][dR][dL][dK][dF][dR][dW] [wrlkfrw],2.23
10,[dW][dW][dL][dK][dL][dR][dW] [wwlklrw],1.99
11,[dW][dT][dL][dR][dI][dH][dW] [wtlrihw],2.82
12,[dL][dK][dI][dR][dI][dH][dY][dA] [lkirihya],3.83
13,[dW][dR][dL][dK][dV][dR][dW] [wrlkvrw],2.45
14,[dF][dR][dI][dK][dL][dR][dW] [friklrw],2.49
15,[dW][dM][dL][dR][dI][dH][dW] [wmlrihw],3.34
16,[dL][dK][dI][dR][dI][dH][dY][dH] [lkirihyh],1.99
17,[dF][dK][dL][dW][dL][dR][dW][dF] [fklwlrwf],2.52
18,[dL][dK][dI][dR][dI][dH][dY][dR] [lkirihyr],3.02
19,[dW][dR][dL][dD][dV][dR][dW] [wrldvrw],2.42

row,Binder,VQIINK Inhibition IC50 [µm]
1,[dW][dQ][dL][dQ][dV][dR][dW] [wqlqvrw],2.74
2,[dW][dH][dV][dK][dF][dE][dL][dF] [whvkfelf],2.12
3,[dW][dR][dL][dE][dI][dH][dW] [wrleihw],2.2
4,[dW][dR][dL][dR][dI][dH][dW] [wrlrihw],2.23
5,[dL][dK][dI][dA][dI][dH][dY][dH] [lkiaihyh],2.26
6,[dL][dR][dI][dE][dI][dE][dW][dH] [lrieiewh],2.1
7,[dW][dR][dL][dA][dV][dR][dW] [wrlavrw],3.89
8,[dW][dQ][dL][dK][dV][dQ][dW] [wqlkvqw],2.27
9,[dF][dR][dL][dR][dI][dW][dW][dF] [frlriwwf],2.29
10,[dW][dD][dL][dK][dV][dR][dW] [wdlkvrw],3.87
11,[dW][dE][dL][dR][dI][dH][dW] [welrihw],3.46
12,[dF][dK][dL][dK][dI][dK][dW] [fklkikw],2.66
13,[dW][dR][dL][dT][dI][dH][dW] [wrltihw],3.16
14,[dW][dR][dL][dK][dV][dA][dW] [wrlkvaw],3.57
15,[dW][dN][dL][dK][dV][dN][dW] [wnlkvnw],3.5
16,[dW][dR][dL][dR][dI][dA][dW] [wrlriaw],2.86
17,[dW][dW][dL][dR][dI][dH][dW] [wwlrihw],2.11
18,[dW][dR][dL][dK][dV][dQ][dW] [wrlkvqw],2.15
19,[dF][dR][dI][dR][dI][dH][dH][dF] [fririhhf],2.02

row,Binder,VQIINK Inhibition IC50 [µm]
1,[dW][dR][dL][dQ][dV][dR][dW] [wrlqvrw],2.12
2,[dL][dK][dI][dQ][dI][dH][dY] [lkiqihy],2.82
3,[dW][dW][dL][dK][dL][dR][dW][dW] [wwlklrww],3.79
4,[dF][dH][dI][dR][dL][dE][dW][dH] [fhirlewh],2.01
5,[dF][dK][dI][dK][dI][dK][dW] (not fully specified; printed as fkikikw) [fkikikw],2.35
6,[dW][dK][dV][dQ][dV][dR][dW] [wkvqvrw],2.21
7,[dL][dK][dI][dCit][dI][dH][dY] [lkizihy],2.13
8,[dF][dK][dL][dK][dL][dR][dW][dF] [fklklrwf],2.2
9,[dW][dR][dL][dR][dI][dM][dW] [wrlrimw],2.61
10,[dW][dR][dL][dR][dI][dE][dW] [wrlriew],1.98
11,[dL][dR][dI][dR][dI][dH][dY][dH] [lririhyh],3.34
12,[dW][dA][dL][dR][dI][dH][dW] [walrihw],3.12
13,[dW][dA][dL][dK][dV][dR][dW] [walkvrw],3.32
14,[dL][dK][dI][dR][dI][dH][dY][dE] [lkirihye],3.39
15,[dF][dR][dI][dR][dL][dR][dW] [frirlrw],2.58
16,[dW][dR][dL][dK][dV][dR][dW][dF] [wrlkvrwf],2.53
17,[dF][dR][dL][dW][dI][dH][dW] [frlwihw],4.01
18,[dL][dK][dV][dR][dW][dW][dW][dR] [lkvrwwwr],3.34
